B1: scFv; the commonest letter at each place (parent)
chain 1: EVKLDETGGGLVQPGRPMKLSCVASGFTFSDYWMNWVRQSPEKGLEWVAQIRNKPYNYETYYSDSVKGRFTISRDDSKSSVYLQMNNLRVEDMGIYYCTGSYYGMDYWGQGTSVTVS
chain 2: DVVMTQTPLSLPVSLGDQASISCRSSQSLVHSNGNTYLRWYLQKPGQSPKVLIYKVSNRFSGVPDRFSGSGSGTDFTLKISRVEAEDLGVYFCSQSTHVPWTFGGGTKLEIK

Data set [1] covers variants of B1. In words: Kd (Tite-Seq). Particulars: with fluorescein; format: scFv 4-4-20, heavy + light.
Data set [2] covers variants of B1. In words: yeast surface expression (ratio to wild type); higher = more expressed. As to conditions: format: scFv 4-4-20, heavy + light.

chain 1 T28R Y32G: the Kd (commonly a measure of binding affinity in units of concentration) in data set [1] was 13.2 nM. Besides, the yeast surface expression in data set [2] was determined as 0.959.

For chain 1 S101V Y102E, in data set [1], the Kd was not below 10000 nM. In addition, the yeast surface expression in data set [2] stood at 0.509.

With chain 1 S101V Y102V, the Kd in data set [1] was not below 10000 nM. The yeast surface expression in data set [2] is 0.432.

As for chain 1 T28M Y32W, in data set [1], the Kd is not below 10000 nM. Moreover, the yeast surface expression in data set [2] stood at 0.903.

With chain 1 T28I W36A, the dissociation constant (Kd) in data set [1] was not below 10000 nM. In data set [2], the yeast surface expression is 0.354.

With chain 1 T28D D31E V37E, in data set [1], the Kd is not below 10000 nM. Further, the yeast surface expression in data set [2] is 0.567.

On to chain 1 T28D F29Y, for which the Kd in data set [1] was 8.71 nM. Further, the yeast surface expression in data set [2] amounted to 0.975.

Turning to chain 1 T28P Y32R, in data set [1], the Kd amounted to 5660 nM. In data set [2], the yeast surface expression was 1.09.

Take chain 1 T28P Y32C: the Kd in data set [1] is 6.72 nM. Also, the yeast surface expression in data set [2] worked out at 0.967.

Consider chain 1 T28E F29Q, for which, in data set [1], the Kd is 8.27 nM. Further, the yeast surface expression in data set [2] was 1.

For the variant chain 1 T28E F29Y, in data set [1], the Kd was 4.68 nM. Moreover, the yeast surface expression in data set [2] worked out at 1.01.

As for chain 1 T28G F29R W36P, the Kd in data set [1] was not below 10000 nM. The yeast surface expression in data set [2] came to 0.146.

Turning to chain 1 T28K V37R, the Kd in data set [1] worked out at 195 nM. For the same variant, the yeast surface expression in data set [2] was 2.19.

chain 1 T28K V37L: the Kd in data set [1] amounted to 143 nM. In addition, in data set [2], the yeast surface expression was found to be 1.01.

In the case of chain 1 T28R S30L D31S, the Kd in data set [1] is not below 10000 nM. Further, in data set [2], the yeast surface expression was 0.198.

In the case of chain 1 T28C M34L W36M, the dissociation constant Kd in data set [1] was not below 10000 nM. For the same variant, in data set [2], the yeast surface expression worked out at 0.657.

For chain 1 T28D M34G, the Kd in data set [1] was found to be 3940 nM. Further, in data set [2], the yeast surface expression came out at 0.865.

As for chain 1 T28N Y32G, in data set [1], the Kd came out at 345 nM. The yeast surface expression in data set [2] is 1.19.

Consider chain 1 T28N Y32Q, for which the Kd in data set [1] is not below 10000 nM. The yeast surface expression in data set [2] was found to be 1.04.

With chain 1 T28M S30W, the Kd in data set [1] was determined as 7.08 nM. In addition, the yeast surface expression in data set [2] turned out to be 0.645.

For the variant chain 1 T28M S30L, the Kd in data set [1] is 10.7 nM. Also, the yeast surface expression in data set [2] was determined as 0.725.

For the variant chain 1 T28H S30G, the dissociation constant (Kd) in data set [1] is 1.22 nM. For the same variant, the yeast surface expression in data set [2] came out at 1.04.

For chain 1 T28H S30D, the Kd in data set [1] turned out to be 1.84 nM. In addition, the yeast surface expression in data set [2] came out at 0.948.

Turning to chain 1 T28F V37C, the equilibrium dissociation constant (Kd) in data set [1] was determined as 1.58 nM. Also, in data set [2], the yeast surface expression turned out to be 0.588.

For chain 1 T28F V37P, the Kd in data set [1] turned out to be 0.589 nM. The yeast surface expression in data set [2] stood at 0.417.

Take chain 1 T28Q N35R: in data set [1], the Kd is not below 10000 nM. In data set [2], the yeast surface expression worked out at 0.537.

Consider chain 1 T28Q N35P, for which, in data set [1], the Kd stood at 832 nM. In addition, in data set [2], the yeast surface expression is 0.622.

Turning to chain 1 T28G D31C, the dissociation constant (Kd) in data set [1] is not below 10000 nM. The yeast surface expression in data set [2] was determined as 0.472.

For the variant chain 1 S101Y M105T, in data set [1], the Kd was not below 10000 nM. The yeast surface expression in data set [2] came out at 0.44.

Take chain 1 T28K M34K: in data set [1], the Kd was found to be 6960 nM. The yeast surface expression in data set [2] was found to be 0.284.

As to chain 1 T28K M34V, the Kd in data set [1] is 1.22 nM. For the same variant, the yeast surface expression in data set [2] stood at 0.867.

For the variant chain 1 T28R V37P, the Kd in data set [1] is not below 10000 nM. The yeast surface expression in data set [2] turned out to be 1.99.

On to chain 1 T28G W36N, for which, in data set [1], the Kd is not below 10000 nM. For the same variant, the yeast surface expression in data set [2] is 0.456.

chain 1 S101V Y103F D106V: in data set [1], the Kd is not below 10000 nM. The yeast surface expression in data set [2] is 0.283.

chain 1 S101W Y103A: the Kd in data set [1] was not below 10000 nM. Further, the yeast surface expression in data set [2] stood at 0.685.

On to chain 1 T28N N35T, for which the Kd in data set [1] is not below 10000 nM. For the same variant, the yeast surface expression in data set [2] came to 0.93.

As for chain 1 T28N N35V, in data set [1], the Kd was not below 10000 nM. In data set [2], the yeast surface expression was 0.666.

For chain 1 T28E D31K, the dissociation constant (Kd) in data set [1] was 1.84 nM. Further, in data set [2], the yeast surface expression turned out to be 0.969.

chain 1 T28Q V37L: in data set [1], the equilibrium dissociation constant (Kd) stood at 3550 nM. For the same variant, the yeast surface expression in data set [2] is 0.864.

Regarding chain 1 T28Q V37F, the equilibrium dissociation constant (Kd) in data set [1] came out at 21 nM. For the same variant, the yeast surface expression in data set [2] turned out to be 1.1.

As for chain 1 T28F F29W V37K, the Kd in data set [1] was not below 10000 nM. The yeast surface expression in data set [2] came out at 0.532.

For the variant chain 1 T28A W33R N35I, the Kd in data set [1] was not below 10000 nM. Besides, in data set [2], the yeast surface expression is 0.622.

For chain 1 T28H S30N Y32M, the Kd in data set [1] worked out at 69.2 nM. Further, in data set [2], the yeast surface expression was determined as 1.01.

With chain 1 S101W G104W, the Kd in data set [1] is not below 10000 nM. Moreover, the yeast surface expression in data set [2] came out at 0.254.

As to chain 1 S101W G104H, the Kd in data set [1] was not below 10000 nM. The yeast surface expression in data set [2] amounted to 0.376.

As to chain 1 S101W G104Y, the Kd in data set [1] is not below 10000 nM. For the same variant, in data set [2], the yeast surface expression worked out at 0.203.

With chain 1 T28K S30K M34Y, in data set [1], the Kd worked out at 5.75 nM. For the same variant, the yeast surface expression in data set [2] is 0.855.

chain 1 T28C S30I: the Kd in data set [1] was 424 nM. In addition, in data set [2], the yeast surface expression stood at 0.651.

With chain 1 T28C S30K, the Kd in data set [1] came to 1.04 nM. Also, the yeast surface expression in data set [2] stood at 0.943.

On to chain 1 T28D W36Q, for which, in data set [1], the Kd was not below 10000 nM. Also, the yeast surface expression in data set [2] turned out to be 0.456.

As to chain 1 T28D W36F, the Kd in data set [1] is 15.4 nM. Also, the yeast surface expression in data set [2] stood at 0.895.

Consider chain 1 T28A W33R M34S, for which, in data set [1], the Kd is not below 10000 nM. Also, the yeast surface expression in data set [2] was determined as 1.12.

As to chain 1 T28G M34P N35T, the Kd in data set [1] was not below 10000 nM. The yeast surface expression in data set [2] amounted to 0.318.

Turning to chain 1 T28N D31C, the Kd in data set [1] was 4.68 nM. The yeast surface expression in data set [2] is 0.826.

Consider chain 1 S101Y Y102W M105T, for which the Kd in data set [1] was not below 10000 nM. Moreover, the yeast surface expression in data set [2] came to 0.507.

Consider chain 1 S101W Y102Q W108A, for which, in data set [1], the Kd is not below 10000 nM. Also, the yeast surface expression in data set [2] is 0.239.

On to chain 1 T28C D31S, for which, in data set [1], the Kd is 6.38 nM. Further, the yeast surface expression in data set [2] was determined as 0.694.

chain 1 T28C D31Q: the Kd in data set [1] is 11.3 nM. Besides, the yeast surface expression in data set [2] is 0.575.

The values are drawn from the FLAb antibody collection (doi:10.7554/elife.23156).
